Source: article PMC9027083 (International Journal of Molecular Sciences, 2022)
Positions count from the first letter of the chain named. Numbers in names are those of the source.

B1: 1A1D-2 Fab WT (Fab, V domains shown)
VH: EVQLQQSGAELVKPGASVKLSCTASGFNIKDTYMHWVKQRPEQGLEWIGRIDPANGYSKYDPKFQGKATITADTSSNAAYLQLSSLTSEDTAVYFCARDYEGFAYWGQGTLVTVSS
VL: DIVLTQSPASLAVSLGQRATISCRASESVVRYGNSFMHWYQQKPGQPPKLLIYRASSLESGIPTRFSGSGSRTDFTLTINPVEADDVATYYCQQTNVDPWAFGGGTKLEIK
notes: also called 1A1D-2 WT
B2: 1A1D-2 Fab A54E.H (Fab, V domains shown)
VH: B1 VH with A54E
VL: B1 VL
B3: 1A1D-2 Fab A54E-Y105R double mutant (Fab, V domains shown)
VH: B1 VH with A54E, Y105R
VL: B1 VL
B4: 1A1D-2 Fab Y105R.H (Fab, V domains shown)
VH: B1 VH with Y105R
VL: B1 VL

Biological target: T1, recombinant MBP-EDIII of DENV1 (Dengue virus 1, strain Guiana/FGA89/1989, strain)
T1 construct: also called DENV1 EDIII; envelope protein domain III of DENV1; not shown: MBP, N-terminal, kept
Experiment: SPR
Conditions: both partners purified

Binder | Kd [nM] | koff [s⁻¹] | kon [M⁻¹ s⁻¹]
B1 | 216 | 0.00755 | 34900
B2 | 140 | 0.00617 | 44300
B3 | 27.4 | 0.0012 | 43900
B4 | 42.6 | 0.00185 | 43500

Biological target: T2, recombinant MBP-EDIII of DENV3 (Dengue virus 3, strain …, UniProt P27915, strain)
T2 construct: also called DENV3 EDIII; envelope protein domain III of DENV3; not shown: MBP, N-terminal, kept
Experiment: SPR
Conditions: both partners purified

Binder | Kd [nM] | koff [s⁻¹] | kon [M⁻¹ s⁻¹]
B1 | 91 | 0.00792 | 87000
B2 | 10.3 | 0.00364 | 354000
B3 | 7.11 | 0.00158 | 222000
B4 | 49.2 | 0.00419 | 85200
